According to the DeepSol protein solubility set:

Assay: soluble on expression in E. coli; label from the status in PepcDB or PDB records

| Sequence | soluble on expression in E. coli |
| --- | --- |
| MLSTIRYYYEHSLIEEKTKHQELSWQTPISRSLVTHDPSTGGIQLSKKNAMLNDAVTTTTTVEVFRAPTNTDMISLTPASNGGPPLLVRTNGPQYEQWNDRRVQTMMVDDDRRDLAKGVQWKERLIEESDRRYRDNGSDFYDEITEPTQFIHHDYRPKPLGFQTITHPIIMTGSRDDLRSQPPQYPAPLSPLYIVPDRHRNIANSVSPGQYSRRSNGYEDRRKDTEELRDERKRENEQNQNRERYHHRRSKSSNRDDASVSHRSLRHRSMSPASRRSFGTSLGGSQEFVIPAHSPIGSTLMLASPDPNELPGRPASAKSQEIFALYQTRDAYNRIVDQL | not soluble |
| MAHHHHHHMATAKELGPGGLREDGRPIFIATDHTKFTPSTKQELTDQQKLAWKSFQLWRTTLGIERRDNVYKTLTNSDYTNFRLGTHILGTPYPVIETVPGFFDVFKAVRWYEHAISLAVALGYGYWIRSKASTRYSRMMPMSRTSITMLTFISTDLCFCYRSMYRLTGYLPNEYECFKYGVLEDKDKLQRKKELWEKYANHKREWCRRYDYHVYGIRPGETFSFFSACMIPSWEPRYNTRTDYPPRKNPYFLTSTPLRDTFLESPFTYEIPKDETVPLVRERPELKYLYRGPGRTTPPSDEK | not soluble |
| MSTLSQLKPASLWQLFEKICSIPHPSKHEQKISLWIQDWAKELGLAIKEDAVGNLFIKKPATAGMEDRKGIILQAHMDMVPQKNNDTDHDFITDPIKPYVIDSGDWVTAEGTTLGADNGVGLASALAILASDDIPHGPLEVLVTIDEEAGMTGAFGLEAGWLDGDILINTDSEQEGEVYMGCAGGIDGNATFALTLEDVPSNYQAFNLSISGLKGGHSGVDIHTGRANANKLLVRFLLSASIDFDISLTELNGGSLRNAIPREANASFVVAKDKVEALKVALADYLSTISANLGAIETDIDMLLISPEDFEQCWTKATQASILRALNACPNGVIRMSDDIEGIVETSLNLGVIHTRGSKLNAMVLIRSLHDDGRLETQRMVQSVFELAGANVVFSGAYPGWKPNTDSAIMQTVRDTYESIFNKVPAVMVIHAGLECGLFKTAYPHWDMVSIGPTIKFPHSPDEKIEIATVEQYWQLLVAVLANIPKKLEHHHHHH | soluble |
| MAIQVKASLRKNPQDKKAAGKYYAQVVLAPEMTQRQIIDQIADRCTVTGSDVKAVLDALMTVIKRNLANGSPIRLGDLGSFRPSVSGIGSENVDKFTASNVKKARVIYVPSAEIKEAVAMYAFSKVGATAEGGNTEKPGGGDIDNPGGGDEEAPDPTVLEHHHHHH | soluble |
| MGSDKIHHHHHHMAKDITLRQLRYFIAAARAGQFSMAATNEHVSQSAITNAVIALEQALGTKLFDRGAHGVTMTVDGHDFYHHARHVLDSVRDAMHKPRAGARATSGTVRIAASYAVLGYFLPELLARFRASFPAIELDLRDMDRAVIENAVLDGTIDLGVTLVSNTPRLDAFEHRILIRSRRQLWTAPSHPLAHAASMSLADIAMHPYILLTVDEGEASTTRYWQAKGMQPNIAFRTGSMEAVRGLVANGFGVTVLSDMLFRAWSLDGTRIDARPVVDSIPPMEVGLIWRPGAALAPAAQQLRHFLIQVNSGEAD | not soluble |
| MEQETLEQVHLTEDGGVVKTILRKGEGGEENAPKKGNEVTVHYVGKLESSGKVFDSSRERNVPFKFHLGQGEVIKGWDICVASMTKNEKCSVRLDSKYGYGEEGCGESIPGNSVLIFEIELISFRE | soluble |
| MGSDKIHHHHHHMETIKAIHTRHSVRAFKDDPIEPQLLTMIVTDAQQTPSWGNSQPWQVYIATGHALTNIKQHYATAAEQGIAEDADLAKVHRGDFSAFASQNMGHWVGTFRPVIDSDPTTYWDSRANLYRAPAIAYLVLDANPNSWSIYDLGAFSQTLMLAATARGVQSVPSYELVKYPAIVRNALGMPANKVVAMGIALGYEKPEKPLNQFRTDRVATPQVLHIIN | not soluble |
| MRGSHHHHHHDDYDGIPNLTAVQISPNADPALGLEYPVRPPVPGAGGLNASAKGIHSIAIGATAEAAKGAAVAVGAGSIATGVNSVAIGPLSKALGDSAVTYGAASTAQKDGVAIGARASTSDTGVAVGFNSKADAKNSVAIGHSSHVAANHGYSIAIGDRSKTDRENSVSIGHESLNRQLTHLAAGTKDTDAVNVAQLKKEIEKTQENTNKRSAELLANANAYAD | soluble |
| MGSDKIHHHHHHMALSLRACILLLKEHHLLKSAAIQNTEDVDMTGIAYDSRKVSGPTLFFCKGDKFRPIYLSMAKDNGARTYVAEKPYVEGNGLNALIVRNITKAMAILSAAFFDYPQDDLFVIAYTGTKGKTTASYFTEAILNEARPRHIALFSTIDTVVGPEPDQRFKSNLTTPESLDLFRDMREAVENGMTHLVMEVSSQAYLRNRVFGLTYDVGFFLNITPDHIGPNEHPTFANYLHNKLQLLVNARKVVINAETEHFDQVYAAATTTTYPESIYLFASAGFRPKRDDIDIDFRFDSQEADVAESRFTLVPVTEKAAALNIGGHYSLALIGDFNESNATAAIIGAGLAGVDASAAVPGIAKVKIPGRMEHTKVAGHGAVYVDYAHNYASMKALLSFLKHAYKDPRLLVVVGSPGDKGVSRRPGFAKVLTEFATEAFLTTDDPGYEDPANIIEEIDSKIDHSKVKVHKVLDRKKAIAEAISDSGPNDIVVVAGKGADPYQKVRGVNTPWPTDMAVVKQVAKSLQEG | not soluble |
| MSLGDEGWQTVIGLEIHAQIKTGKKLFSKASTSYGHVPNTNVDVHDAAFPGTLPVLDINAIRLSIMTALALNCQINPRSTFDRKHYFYHDIPASYQITQHYNPLAWNGHLEIREGDNGSKRTFNIGIKQLQVEQDTAKSQTVGDAVLVDLNRAGTGLMEIVTDPDMRSPEEAGAFVKKLQGLLRRVGSADGDMEKGNLRVDVNVSVHRPGMPFGTRCEIKNINSVRFLQAAIESERQRHIAHYCTSPLEPLAQETRGFNELTLQTYSLRSKEEATDYRYMPDHNLPAIIIDDGYLDSLWKNLPEMPWQSVERLVKTYGVTKRDAETLLGLDEYSAQGIAYFEEVVEQDKKIAKKATNWIAHELLGQLGKAIRPWTPTIVPAPLMHELVTAVESREITGTTGKAIVKHFVSLPESASLPPSFAELLAELGLTPSAASVEDLTETCKKAMNNQPKAVADFKKGNEKVVMRLVGEVMKLSGGKADAMKAKDILLDLLKDEGHHHHHH | not soluble |
| GRKQEPFENVTLDVEEQHQGSVMQALGERKGDLKNMNPDGKGRVRLDYVIPSRGLIGFRSEFMTMTSGTGLLYSTFSHYDDVRPGEVGQRNNGVLISNGQGKAVAFALFGLQDRGKLFLGHGAEVYEGQI | not soluble |
| SMSAGPWKMVVWDEDGFQGRRHEFTAECPSVLELGFETVRSLKVLSGAWVGFEHAGFQGQQYILERGEYPSWDAWGGNTAYPAERLTSFRPAACANHRDSRLTIFEQENFLGKKGELSDDYPSLQAMGWEGNEVGSFHVHSGAWVCSQFPGYRGFQYVLECDHHSGDYKHFREWGSHAPTFQVQSIRRIQQ | soluble |
| MGSDKIHHHHHHMKIGTYQRLKAIKFLDFGVYLLEELTQEEVLLPKRYVPEGLEMGAMLEVFLYTDSEDRPVATTLKPKAILGEVAALEVVSVSERGCYLDLGIAKDIFMPCKNPYSFHEGQKVVVRLDLDKEKRLIARIGVKNYLQNAPVTLRPFTEVEILPFEWSTLGYGCMVNGRYFGMLFNNETFEKLPLGEARKGYIKAVRPDGKIDLSLRKSQGAGGLKEELEKLMKALQSAGGKLELHYDSDPDEISKITGLSKKGFKRALGEAIRSQKVELVAGKGIEQIR | not soluble |
| MCAHEGKQYKNDTTFISQGSFRMKCVTFKNLTSTLEVISCITPAGVEISIGTQLEEGDKVFECTPGNVTLKSTPGQTGKCRGVYSVGDTWVEDSFRLLCEPYGKVNLKSCISKEGVEIPLGEARRVPAGYAMECVTVNGNVALQTAKTFDCETGTGEIKKFGDTWNEGNFVRRCANYGVSAIIGCYADGVGSIGLNQNMTSGDFLYMCINQNEQFKFRTLKAT | not soluble |
| SSQPDPTPEQLNKSSQFTGVMGNLRCLYDNHFVEGTNVRSTGQLLQHDLIFPIKDLKLKNYDSVKTEFNSKDLATKYKNKDVDIFGSNYYYNCYYSEGNSCKNAKKTCMYGGVTEHHRNQIEGKFPNITVKVYEDNENILSFDITTNKKQVTVQELDCKTRKILVSRKNLYEFNNSPYETGYIKFIESSGDSFWYDMMPAPGAIFDQSKYLMLYNDNKTVSSSAIAIEVHLTKK | soluble |
| MGSDKIHHHHHHMYRSRNRPKRGGENEVKGPNSALTQFLREEGISAENIKQKWYQRQSKKQEDATDEKKGKAEDDSFTAEISRVVEDEEIDEIGTGSGTETERAQVSYDARMKLVPADSDEEEYETSHISDTPVSLSSANDRESLTKKRQNTAKIIQNRRRKRKRAADLLDRRVNKVSSLQSLCITKISENISKWQKEADESSKLVFNKLRDVLGGVSTANLNNLAKALSKNRALNDHTLQLFLKTDLKRLTFSDCSKISFDGYKTLAIFSPHLTELSLQMCGQLNHESLLYIAEKLPNLKSLNLDGPFLINEDTWEKFFVIMKGRLEEFHISNTHRFTDKSLSNLLINCGSTLVSLGLSRLDSISNYALLPQYLVNDEFHSLCIEYPFNEEDVNDEIIINLLGQIGRTLRKLVLNGCIDLTDSMIINGLTAFIPEKCPLEVLSLEESDQITTDSLSYFFSKVELNNLIECSFRRCLQLGDMAIIELLLNGARDSLRSLNLNSLKELTKEAFVALACPNLTYLDLGFVRCVDDSVIQMLGEQNPNLTVIDVFGDNLVTEKATMRPGLTLIGRQSDSI | not soluble |
| MALTATVRRAELQISDMDRGYYANHSLTLAQHPSETDERLMVRLLAFALFADDRLEFGRGLSNDDEPDLWRRDYTGDPDLWIDLGQPDESRVRKACNRSREAVVIGYGGQATETWWKKHANAMGRYRNLRVIELDSQATEALGALIQRGMRFDVIIQDGEVQMLADHGSVTLTPMVRQAPAE | soluble |
| MPVPDLFAEGLARGWKTYNGSRLDDDLELEADVVVVGTGAGGGTTAEILSAAGLKVLLVEEGPLKTSSDFKMQEADAYPELYQEGIGRMSKDGAITILQGRAVGGTTLINWTSSFRTPEPTLQHWAQVYGVKGHSAEDMAPWFEKMEQRLHVAPWALPPNANNDVIRLGCEKLGYHWKVIPRNVLGCWNLGYCGMGCPVNAKQSMLVTTIPATLDKGGELLYLARANRLLLDGDKVTGLECLGMDERCVAPNGRRIRVRARHYVLSGGGINTPAILLRSKAPDPSQRVGKRTFLHTVNFSAGLFDRVINPFYGAPQSIYSDHFQWDDGVTGRMSYKLEVPPLQPSLASVLLGGFGSDNALRMEQLPHTNMMLALLRDGFHPDSAEGSVGLRGDDTPVLDYRMTDYTWDGIRRAFHTMAEIQFAAGAREVRPVHSDARSAKNLQEARGIIDGLRLEIYRTRLGSAHVMGGCAMGEDPAVAVADSLGRHHHLRNLSIHDGSLFPTSIGANPQLSVYGLTAQLASALAERLARALEHHHHHH | not soluble |
| MMTQTLLIELLTEELPPKALNNLGNHFAASVAEGLEKAQLVDGAAEFTAYASPRRLAVQVKNVKAVQADQKIVKKGPAVANAMKDGAPTKALEGFARGAGAKIEDLTIVHDGKQDVYAYEYVQIGKPLGGLLEDIINQAVKKLPIPKVMRWGSSTFTFVRPVHGLVVLHGGDIVNVSVLGLQSGNKTLGHRFLSDGEITIENADSYAAQMREQGKVVASFAERKAAIQTVLEGQARRLNATAAADEALLDEVTALVEWPVVLEAGFEEHFLAVPQECLILTMQQNQKYFPLLDQNGKLMNRFLLVSNLQTEDPSHIIQGNERVLRARLSDAEFFYKQDQKATLESRLPKLTNVVYHNKIGSQAERIERLQSIAAHIAKALGADAAAAERAARLAKADLVTEMVGEFPELQGTMGKYYARLDGETEEITEAVEQHYQPRFAGDNLPEGKIAAAVALADKLETLVGIWGIGLIPTGDKDPYALRRAALGILRMLMQYGLDVNELIQTAFNSFPQGLLNEKTPSETADFMQARLAVLLQNDYPQDIVAAVLAKQPRRLDDLTAKLQAVAAFKQLPEAAALAAANKRVQNLLKKADAELGAVNESLLQQDEEKALFAAAQGLQPKIAAAVAEGNFQTALSELASVKPQVDAFFDGVMVMAEDAAVKQNRLNLLNRLAEQMNAVADIALLGE | not soluble |
